These results are taken from patent publication US20220298257A1.

In experiment [1] the target is full-length human CD22 fused with flag and Myc tags at the C-terminus, on HEK293 or K562 cells (human) (UniProt P20273). As to the kind of experiment: cell-based or functional assay.
Experiment [2] shares this target. The experiment is described as follows: ELISA, IgG format; antigen format not described. A general note: In an ELISA, binding on a coated surface is turned into a signal by an enzyme label.
Experiment [3] has the same target. As to the kind of experiment: FACS on CD22-expressing cells (HEK293-CD22 by the table's head), anti-hFc Alexa 488.

full-length human CD22 fused with flag and Myc tags at the C-terminus, on HEK293 or K562 cells (human), sequence (P20273 20-847): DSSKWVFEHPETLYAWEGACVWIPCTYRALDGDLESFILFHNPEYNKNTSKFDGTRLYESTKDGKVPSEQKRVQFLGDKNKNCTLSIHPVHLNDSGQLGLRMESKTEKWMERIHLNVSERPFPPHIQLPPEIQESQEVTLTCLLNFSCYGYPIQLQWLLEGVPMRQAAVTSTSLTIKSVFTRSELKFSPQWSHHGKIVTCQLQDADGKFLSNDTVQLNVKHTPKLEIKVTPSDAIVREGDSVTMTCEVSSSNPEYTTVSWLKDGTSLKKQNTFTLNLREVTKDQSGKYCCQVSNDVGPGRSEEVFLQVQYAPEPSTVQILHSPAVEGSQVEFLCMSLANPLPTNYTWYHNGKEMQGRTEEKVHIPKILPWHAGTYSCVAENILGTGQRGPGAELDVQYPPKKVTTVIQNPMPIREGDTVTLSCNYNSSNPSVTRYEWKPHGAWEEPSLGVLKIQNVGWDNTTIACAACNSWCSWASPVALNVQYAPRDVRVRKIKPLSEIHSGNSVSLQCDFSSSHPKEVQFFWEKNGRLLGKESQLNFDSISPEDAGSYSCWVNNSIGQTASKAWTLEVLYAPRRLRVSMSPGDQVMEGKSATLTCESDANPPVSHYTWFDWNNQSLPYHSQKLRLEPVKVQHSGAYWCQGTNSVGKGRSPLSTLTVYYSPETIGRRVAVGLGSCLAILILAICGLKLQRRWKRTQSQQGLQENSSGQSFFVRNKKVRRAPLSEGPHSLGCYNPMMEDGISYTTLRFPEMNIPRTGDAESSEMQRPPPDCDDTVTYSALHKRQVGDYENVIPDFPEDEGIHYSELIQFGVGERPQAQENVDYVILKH

By EC50 is commonly meant the concentration at which the effect is half-maximal. A low value points to greater potency. With BL22 (anti-CD22) (antibody), in experiment [1], the EC50 in ADCC assay (Promega ADCC Bioreporter, CD22/HEK293 target cells) turned out to be 3.31 nM and the T½ (Hour) of internalization, CD22/HEK293 cells, pHrodo secondary amounted to 3.95 Hour. For the same substance, the 50% effective concentration (EC50) in experiment [2] is 0.004 nM. For the same substance, the 50% effective concentration (EC50) in experiment [3] was found to be 0.044 nM.
